# Measurements reported in paper PMC5998024, “Hydrophobic pore gates regulate ion permeation in polycystic kidney disease 2 and 2L1 channels” (Nature Communications, 2018).
# B1: maltose binding protein fused human PKD2 protein, residues 53-792, harboring the F604P GOF mutation (domain or fragment, UniProt Q13563-1 53-792, looked up)
# chain: EIEMQRIRQAAARDPPAGAAASPSPPLSSCSRQAWSRDNPGFEAEEEEEEVEGEEGGMVVEMDVEWRPGSRRSAASSAVSSVGARSRGLGGYHGAGHPSGRRRRREDQGPPCPSPVGGGDPLHRHLPLEGQPPRVAWAERLVRGLRGLWGTRLMEESSTNREKYLKSVLRELVTYLLFLIVLCILTYGMMSSNVYYYTRMMSQLFLDTPVSKTEKTNFKTLSSMEDFWKFTEGSLLDGLYWKMQPSNQTEADNRSFIFYENLLLGVPRIRQLRVRNGSCSIPQDLRDEIKECYDVYSVSSEDRAPFGPRNGTAWIYTSEKDLNGSSHWGIIATYSGAGYYLDLSRTREETAAQVASLKKNVWLDRGTRATFIDFSVYNANINLFCVVRLLVEFPATGGVIPSWQFQPLKLIRYVTTFDFFLAACEIIFCFFIFYYVVEEILEIRIHKLHYFRSFWNCLDVVIVVLSVVAIGINIYRTSNVEVLLQFLEDQNTFPNFEHLAYWQIQFNNIAAVTVFFVWIKLFKFINFNRTMSQLSTTMSRCAKDLFGFAIMPFIIFLAYAQLAYLVFGTQVDDFSTFQECIFTQFRIILGDINFAEIEEANRVLGPIYFTTFVFFMFFILLNMFLAIINDTYSEVKSDLAQQKAEMELSDLIRKGYHKALVKLKLKKNTVDDISESLRQGGGKLNFDELRQDLKGKGHTDAEIEAIFTKYDQDGDQELTEHEHQQMRDDLEKEREDLDLD
# notes: human PKD2 (polycystin-2, TRPP2), residues 53-792 (E53-D792), with the gain-of-function mutation F604P; cytoplasmic N- and C-termini not seen in the map; also called PKD2 F604P; F604P mutant; source: HEK293S GnTI- cells, transduced with baculovirus, purified (amylose resin, amphipols A8-35, Superdex 200)
# Target: the molecule itself
# Test: cryo-EM structure; single-particle cryo-EM of purified PKD2 F604P (53-792) in amphipols A8-35; C4 symmetry imposed, reconstruction without imposed symmetry also showed C4 symmetry; 3.5 Å
protein,measurement,value
B1,stoichiometry N,4
